The values that follow come from patent US10774129B2, “Complexes of types of MHC class II that bind to collagen type II peptides and their use on diagnosis and treatment” (FRAUNHOFER-GESELLSCHAFT ZUR FÖRDERUNG DER ANGEWANDTEN …, priority 2011, dated 2020).

Square brackets hold non-standard residues; d marks the D form. Ends that are not written are not given here. Cit = NC(=O)NCCC[C@H](N)C(=O)O

Common to all, as to assay: in vitro binding assay to recombinant MHC class II protein
Assay [1] has as its target MHC class II of the HLA DRB1 0404 genotype (Homo sapiens, UniProt P01903+P01911, A100R/A169T/F76Y/I96L/K127E/L162R/M171V/N62H/P40V/Q125Y/R42H/S133A/S149N/S66Y/V209L/W38E). On the set-up: key: *0101: the listing of the allele in the column for the allele indicates binding; *0401: “0401” in the “Binds to 0401” column indicates binding of the peptide to MHC class II of the HLA DRB1 0401 genotype; *0404: the listing of the allele in the column for the allele indicates binding; *0405: the listing of the allele in the column for the allele indicates binding; *0408: the listing of the allele in the column for the allele indicates binding; *1001: the listing of the allele in the column for the allele indicates binding; “no” or no data indicates no binding to a protein of that genotype. The text has this:
(§1) Binding of the peptides to recombinant MHC class II protein of various alleles has been confirmed in an in vitro binding assay and the results are shown in Tables 1, 2 and 3. In table 1, 2 and 3, the listing of the allele in the column for the allele indicates binding. Thus “0401” in the “Binds to 0401” column indicates binding of the peptide to MHC class II of the HLA DRB1 0401 genotype. “no” or no data indicates no binding to a protein of that genotype. Empty boxes indicate no binding or that binding has not been determined. In the tables it is also indicated if the peptide has a citrulline residue, where “yes” indicates the presence of a citrulline residue and “no” indicates the absence of a citrulline residue.

Assay [2] concerns the target MHC class II of the HLA DRB1 0101 genotype (Homo sapiens, UniProt P01903+P01911, A100R/D57E/F55L/F60I/F76Y/I96L/L162R/M171V/P40L/Q125E/R42F/V115G/Y59C). Also on record: key: *0101: the listing of the allele in the column for the allele indicates binding; *0401: “0401” in the “Binds to 0401” column indicates binding of the peptide to MHC class II of the HLA DRB1 0401 genotype; *0404: the listing of the allele in the column for the allele indicates binding; *0405: the listing of the allele in the column for the allele indicates binding; *0408: the listing of the allele in the column for the allele indicates binding; *1001: the listing of the allele in the column for the allele indicates binding; “no” or no data indicates no binding to a protein of that genotype.
Source text: as §1

The target of assay [3] is MHC class II of the HLA DRB1 0401 genotype (Homo sapiens, UniProt P01903+P01911, A100K/A169T/F76Y/I96L/K127E/L162R/M171V/N62H/P40V/Q125Y/R42H/S133A/S149N/S66Y/V115G/V209L/W38E). On the set-up: key to Binds to 0401: *0101: the listing of the allele in the column for the allele indicates binding; *0401: “0401” in the “Binds to 0401” column indicates binding of the peptide to MHC class II of the HLA DRB1 0401 genotype; *0404: the listing of the allele in the column for the allele indicates binding; *0405: the listing of the allele in the column for the allele indicates binding; *0408: the listing of the allele in the column for the allele indicates binding; *1001: the listing of the allele in the column for the allele indicates binding; “no” or no data indicates no binding to a protein of that genotype. The following applies: recombinant MHC class II, HLA DRB1 0401.
Source text: as §1
Thus for these peptides no binding to HLA-DR0401 was observed when citrulline was exchanged with the original amino acid arginine (Table 4). No binding of the citrullinated peptides was seen to HLA-DR 03 or 02 variants.

The target of assay [4] is MHC class II of the HLA DRB1 0405 genotype (Homo sapiens, UniProt P01903+P01911, A100R/A169T/D86S/F76Y/I96L/K127E/L162R/M171V/N62H/P40V/Q125Y/R42H/S133A/S149N/S66Y/V115G/V209L/W38E). On the set-up: key: *0101: the listing of the allele in the column for the allele indicates binding; *0401: “0401” in the “Binds to 0401” column indicates binding of the peptide to MHC class II of the HLA DRB1 0401 genotype; *0404: the listing of the allele in the column for the allele indicates binding; *0405: the listing of the allele in the column for the allele indicates binding; *0408: the listing of the allele in the column for the allele indicates binding; *1001: the listing of the allele in the column for the allele indicates binding; “no” or no data indicates no binding to a protein of that genotype.
Source text: as §1

Consider “type II collagen 100: human collagen type II peptide, not citrullinated (PQGARGFPGTPGLPG; listed as Homo sapiens)”, for which the “Binds to 0404” value in assay [1] is recorded as “*0404”.

As for “type II collagen 137: human collagen type II peptide, not citrullinated (GEPGIAGFKGEQGPK; listed as Homo sapiens)”, in assay [2], the “Binds to 0101” value is on record as “*0101”. Also, the “Binds to 0404” value in assay [1] is listed as “*0404”. In addition, the “Binds to 0401” value in assay [3] is on record as “*0401”.

As for “type II collagen 138: human collagen type II peptide, not citrullinated (AGFKGEQGPKGEPGP; listed as Homo sapiens)”, in assay [2], the “Binds to 0101” value is on record as “*0101”. Besides, the “Binds to 0401” value in assay [3] is reported as “*0401”.

As for “type II collagen 166: human collagen type II peptide, not citrullinated (VMGFPGPKGANGEPG; listed as Homo sapiens)”, the “Binds to 0404” value in assay [1] is “*0404”.

With “type II collagen 178: human collagen type II peptide, not citrullinated (PSGFQGLPGPPGPPG; listed as Homo sapiens)”, the “Binds to 0405” value in assay [4] is recorded as “*0405”.

With “type II collagen 195: human collagen type II peptide, not citrullinated (PGLQGMPGERGAAGI; listed as Homo sapiens)”, in assay [1], the “Binds to 0404” value is given as “*0404”. Further, the “Binds to 0401” value in assay [3] is reported as “*0401”.

In the case of “type II collagen 224: human collagen type II peptide, not citrullinated (GPPGATGFPGAAGRV; listed as Homo sapiens)”, in assay [1], the “Binds to 0404” value is on record as “*0404”.

For “type II collagen 257: human collagen type II peptide, not citrullinated (GDRGETGAVGAPGAP; listed as Homo sapiens)”, in assay [1], the “Binds to 0404” value was “*0404”.

Turning to “type II collagen 272: human collagen type II peptide, not citrullinated (GHRGFTGLQGLPGPP; listed as Homo sapiens)”, in assay [4], the “Binds to 0405” value is reported as “*0405”.

For the substance “vimentin 13: human vimentin peptide, not citrullinated (YATRSSAVRLRSSVP; listed as Homo sapiens)”, in assay [2], the “Binds to 0101” value is recorded as “*0101”. Further, the “Binds to 0401” value in assay [3] was “no”.

In the case of “vimentin 14: human vimentin peptide, not citrullinated (SAVRLRSSVPGVRLL; listed as Homo sapiens)”, in assay [1], the “Binds to 0404” value is reported as “*0404”.

With “vimentin 16: human vimentin peptide, not citrullinated (GVRLLQDSVDFSLAD; listed as Homo sapiens)”, the “Binds to 0101” value in assay [2] was “no”. For the same substance, in assay [3], the “Binds to 0401” value is listed as “*0401”.

In the case of “vimentin 20: human vimentin peptide, not citrullinated (FKNTRTNEKVELQEL; listed as Homo sapiens)”, the “Binds to 0401” value in assay [3] is recorded as “*0401”.

Regarding “vimentin 27: human vimentin peptide, not citrullinated (LLAELEQLKGQGKSR; listed as Homo sapiens)”, the “Binds to 0101” value in assay [2] is recorded as “*0101”. The “Binds to 0404” value in assay [1] is “no”.

For the substance “vimentin 32: human vimentin peptide, not citrullinated (ELRRQVDQLTNDKAR; listed as Homo sapiens)”, the “Binds to 0101” value in assay [2] is reported as “*0101”. Further, the “Binds to 0404” value in assay [1] is given as “*0404”.

Regarding “vimentin 42: human vimentin peptide, not citrullinated (FRQDVDNASLARLDL; listed as Homo sapiens)”, the “Binds to 0101” value in assay [2] was “*0101”. The “Binds to 0404” value in assay [1] is “no”. The “Binds to 0401” value in assay [3] is “*0401”.

Consider “vimentin 44: human vimentin peptide, not citrullinated (ARLDLERKVESLQEE; listed as Homo sapiens)”, for which the “Binds to 0404” value in assay [1] is “*0404”.

Turning to “vimentin 55: human vimentin peptide, not citrullinated (DVRQQYESVAAKNLQ; listed as Homo sapiens)”, the “Binds to 0101” value in assay [2] is listed as “*0101”. In assay [3], the “Binds to 0401” value is reported as “*0401”.

For the substance “vimentin 59: human vimentin peptide, not citrullinated (YKSKFADLSEAANRN; listed as Homo sapiens)”, the “Binds to 0401” value in assay [3] was “*0401”.

For “vimentin 71: human vimentin peptide, not citrullinated (FAVEAANYQDTIGRL; listed as Homo sapiens)”, the “Binds to 0401” value in assay [3] is recorded as “*0401”.

As to “vimentin 79: human vimentin peptide, not citrullinated (MALDIEIATYRKLLE; listed as Homo sapiens)”, the “Binds to 0101” value in assay [2] is “*0101”. Besides, in assay [1], the “Binds to 0404” value is on record as “*0404”. In addition, the “Binds to 0401” value in assay [3] is on record as “no”.

With “vimentin 92: human vimentin peptide, not citrullinated (GQVINETSQHHDDLE; listed as Homo sapiens)”, the “Binds to 0404” value in assay [1] is listed as “*0404”.

For the substance “vimentin 93: citrullinated human vimentin peptide (MST[Cit]SVSSSSY[Cit][Cit]MF; listed as Homo sapiens)”, in assay [2], the “Binds to 0101” value is recorded as “no”. Moreover, the “Binds to 0404” value in assay [1] is “*0404”. Further, the “Binds to 0401” value in assay [3] is “*0401”.

For the substance “vimentin 95: citrullinated human vimentin peptide (Y[Cit][Cit]MFGGPGTAS[Cit]PS; listed as Homo sapiens)”, the “Binds to 0101” value in assay [2] is given as “*0101”. In assay [3], the “Binds to 0401” value is recorded as “*0401”.

Regarding “vimentin 99: citrullinated human vimentin peptide (VTTST[Cit]TYSLGSAL[Cit]; listed as Homo sapiens)”, in assay [2], the “Binds to 0101” value was “*0101”. In addition, the “Binds to 0401” value in assay [3] is “*0401”.

For “vimentin 132: citrullinated human vimentin peptide (F[Cit]QDVDNASLA[Cit]LDL; listed as Homo sapiens)”, the “Binds to 0101” value in assay [2] is “*0101”.

For the substance “vimentin 145: citrullinated human vimentin peptide (STEY[Cit][Cit]QVQSLTCEV; listed as Homo sapiens)”, the “Binds to 0401” value in assay [3] is recorded as “*0401”.

Take “vimentin 150: citrullinated human vimentin peptide (FAVEAANYQDTIG[Cit]L; listed as Homo sapiens)”: the “Binds to 0401” value in assay [3] was “*0401”.

As for “vimentin 156: citrullinated human vimentin peptide (XEYQDLLNVKMALDI; citrullinated; MOD_RES (1)..(1) Citrulline; listed as Homo sapiens)”, the “Binds to 0101” value in assay [2] was “*0101”.

“vimentin 159: citrullinated human vimentin peptide (XKLLEGEESXISLPL; citrullinated; MOD_RES (1)..(1) Citrulline; MOD_RES (10)..(10) Citrulline; listed as Homo sapiens)”: the “Binds to 0404” value in assay [1] is “No”. Also, in assay [3], the “Binds to 0401” value is listed as “*0401”.
